In patent US7998940B2, “Aptamers to von Willebrand factor and their use as thrombotic disease therapeutics” (Archemix Corp., priority 2004, dated 2011):
Oligonucleotides are written 5' to 3', each unit as a sugar letter and its base; * is a phosphorothioate linkage, no mark a phosphodiester; rarer units and linkages stand in square brackets, end groups in braces. Plain capitals give the bases only. d = 2'-deoxy (DNA); r = 2'-OH (RNA); f = 2'-fluoro

B1: AMX205.A7: rRdY aptamer clone (nucleic acid)
chain: rGrGrArGdCrGdCrAdCdTdCrArGdCdCrAdCdTdCrArArGrGrGrGrGdTdCrGdCrGdTrGrGrGrGrAdCrGrArArGrGrGdTdTrGdCrArGdTrGdTrGdTdCrGdTdTdTdCrGrAdCdCdTdCdTdCdTrGdCdTrArGdC
B2: AMX201.B11: rRfY aptamer clone (nucleic acid)
chain: rGrGrArGfCrGfCrAfCfUfCrArGfCfCrAfCrAfCfCrGrArGrGfCfUrGrGrAfUrAfUfCfUrAfCrGrArGrArGrGrArArGfUrGfCfUrGfCfUfUrGrArAfUfUfUfCrGrAfCfCfUfCfUfCfUrGfCfUrArGfC
B3: AMX201.H11: rRfY aptamer clone (nucleic acid)
chain: rGrGrArGfCrGfCrAfCfUfCrArGfCfCrAfCfCfCfUrGfUfCrGfUfCfUfUfUfUrGrGfUrArGfUfCrArGfCfCrArArArArGfCfUrArGfUfUrGrGfUfUrGfUfUfUfCrGrAfCfCfUfCfUfCfUrGfCfUrArGfC
B4: AMX201.H4: rRfY aptamer clone (nucleic acid)
chain: rGrGrArGfCrGfCrAfCfUfCrArGfCfCrAfCfUrArAfCrGrGfUfUrGrAfUfCfUfCrArGrGrAfCfUrArAfUrArGfUfCrArAfCrArArGrGrAfUrGfCrGfUfUfUfCrGrAfCfCfUfCfUfCfUrGfCfUrArGfC
B5: AMX201.D4: rRfY aptamer clone (nucleic acid)
chain: rGrGrArGfCrGfCrAfCfUfCrArGfCfCrAfCfUrGrGrGrGfCfUrGrAfUfCfUfCrGfCrAfCrGrAfUrArGfUfUfCrGfUrGfUfCrArArGrGrAfUrGfCrGfUfUfUfUfCrGrAfCfCfUfCfUfCfUrGfCfUrArGfC
B6: AMX201.A8: rRfY aptamer clone (nucleic acid)
chain: rGrGrArGfCrGfCrAfCfUfCrArGfCfCrAfCrGfCfUrGfUrAfCrAfCfUrGrAfUrGfUfUrGfUrArAfCrAfUrGfUrAfCfCfCfCfCfUrGrGfCfUrGfUfUfUfCrGrAfCfCfUfCfUfCfUrGfCfUrArGfC
B7: AMX201.D10: rRfY aptamer clone (nucleic acid)
chain: rGrGrArGfCrGfCrAfCfUfCrArGfCfCrAfCrAfCfUrGrArGrGfCfUrGrGrAfUrAfUfCfUrAfCrGrArGrArGrGrArArGfUrGfCfUrGfCfUfUrGrGrAfUfUfUfCrGrAfCfCfUfCfUfCfUrGfCfUrArGfC
B8: AMX201.B3: rRfY aptamer clone (nucleic acid)
chain: rGrGrArGfCrGfCrAfCfUfCrArGfCfCrAfCrArGrArGfCfCfCfUrGrArGfUrGfUrAfUrGrAfUfCrGfCfCrGrArGrAfUfCfUrAfUfCrGrAfUrGfCfUfUfUfUfUfCrGrAfCfCfUfCfUfCfUrGfCfUrArGfC
B9: AMX203.A6: rRdY aptamer clone (nucleic acid)
chain: rGrGrArGdCrGdCrAdCdTdCrArGdCdCrAdCdCrAdCrGrGrGrGrAdCrGrGrGdTrArGrGrGdCrGrGrGdCrGrArGrGdTrGrGdTrGrGdCrAdTdTrArGdCrGdTdTdTdCrGrAdCdCdTdCdTdCdTrGdCdTrArGdC
B10: AMX201.D3: rRfY aptamer clone (nucleic acid)
chain: rGrGrArGfCrGfCrAfCfUfCrArGfCfCrAfCrGfCfCfCrAfCrGfUfCrArArAfUfUrAfUrArGfUfCfUrAfCfUfUfUrGrAfUrGfUrGfCfCfCrGfUrGrGfUfUfUfCrGrAfCfCfUfCfUfCfUrGfCfUrArGfC
B11: AMX205.G9: rRdY aptamer clone (nucleic acid)
chain: rGrGrArGdCrGdCrAdCdTdCrArGdCdCrAdCrArAdCdTrGrGdTdTrGdTdCrGrGdTrGrAdTrGrGdCrAdTdTrArAdCrGdCrGrGrAdCdCrArGrGdCrAdTrGdTdTdTdCrGrAdCdCdTdCdTdCdTrGdCdTrArGdC
B12: AMX200.G11: DNA SELEX 1 aptamer clone (nucleic acid)
DNA: CTACCTACGATCTGACTAGCGGAACGAGAATGCTGATGGATTGCTCAGGTCTGCTGGCTGCTTACTCTCATGTAGTTCC
modifications: DNA, backbone not given here
notes: DNA SELEX 1 aptamer clone
B13: AMX200.B1: DNA SELEX 1 aptamer clone (nucleic acid)
DNA: CTACCTACGATCTGACTAGCGGAATGAGAATGCTGATGGATTGCCCAGGTCTGCTGGCTGCTTACTCTCATGTAGTTCC
modifications: DNA, backbone not given here
notes: DNA SELEX 1 aptamer clone
B14: AMX200.D1: DNA SELEX 1 aptamer clone (nucleic acid)
DNA: CTACCTACGATCTGACTAGCGGAATGAGAGTGCTGATGGATTGCTCAGGTCTACTGGCTGCTTACTCTCATGTAGTTCC
modifications: DNA, backbone not given here
notes: DNA SELEX 1 aptamer clone
B15: AMX200.B9: DNA SELEX 1 aptamer clone (nucleic acid)
DNA: CTACCTACGATCTGACTAGCGGAATGAGAATGCTGATGGATTGCTCAGGTCTGCTGACTGCTTACTCTCATGTAGTTCC
modifications: DNA, backbone not given here
notes: DNA SELEX 1 aptamer clone
B16: AMX200.A7: DNA SELEX 1 aptamer clone (nucleic acid)
DNA: CTACCTACGATCTGACTAGCGGAATGAGAATGCTGATGGATTGTTCAGGTCTGCTGGCTGCTTACTCTCATGTAGTTCC
modifications: DNA, backbone not given here
notes: DNA SELEX 1 aptamer clone
B17: AMX200.B8: DNA SELEX 1 aptamer clone (nucleic acid)
DNA: CTACCTACGATCTGACTAGCGGAATGAGAATGTTGGTGGATTGCTCAGGTCTGCTGGCTGCTTACTCTCATGTAGTTCC
modifications: DNA, backbone not given here
notes: DNA SELEX 1 aptamer clone
B18: AMX200.D8: DNA SELEX 1 aptamer clone (nucleic acid)
DNA: CTACCTACGATCTGACTAGCGGAATGAGAATGTTGATGGATTGCTCAGGTCTGCTGGCTGCTTACTCTCATGTAGTTCC
modifications: DNA, backbone not given here
notes: DNA SELEX 1 aptamer clone
B19: AMX200.D11: DNA SELEX 1 aptamer clone (nucleic acid)
DNA: CTACCTACGATCTGACTAGCGGAATAAGAATGCTGATGGATTGCTCAGGTCTGCTGGCTGCTTACTCTCATGTAGTTCC
modifications: DNA, backbone not given here
notes: DNA SELEX 1 aptamer clone
B20: AMX203.F9: rRdY aptamer clone (nucleic acid)
chain: rGrGrArGdCrGdCrAdCdTdCrArGdCdCrAdCdTrGrArArGrGrGdTrArArGrGrAdCrGrArGrGrArGrGrGdTrAdTrAdCrArGdTrGdTrGdCrGdCrGdTrGdTrAdTdTdTdCrGrAdCdCdTdCdTdCdTrGdCdTrArGdC

Assays:
[1] = biological target: human vWF A1 domain (SEQ ID NO 5) (Homo sapiens, UniProt P04275, T1381A); test: 3-point dot blot screen, human vWF A1 domain; assay type: binding; settings: 100 nM human vWF A1 domain
Excerpt: (§1) When a significant positive ratio of binding of RNA in the presence of human or rabbit vWF A1 domain versus in the absence of protein was seen, the pools were cloned using the TOPO TA cloning kit (Invitrogen, Cat. #45-0641, Carlsbad, Calif.) according to the manufacturer's instructions. Round 9 and 12 pool templates were cloned and sequenced (125 total sequences), producing 48 unique clones. All unique clones were transcribed, desalted, 5-^32P end-labeled, and assayed in a 3-point dot blot screen (no protein target control, 100 nM human vWF A1 domain (SEQ ID NO 5, FIG. 3), or 100 nM rabbit vWF A1 domain (SEQ ID NO 6, FIG. 3). The data is presented in the third and fourth columns of Table 4 below as the ratio of the fraction of the aptamer bound to the nitrocellulose in the presence of the target protein to the fraction of aptamer bound in the absence of the target protein.
(§2) When a significant positive ratio of binding of RNA in the presence of human or rabbit vWF A1 domain (SEQ ID NOS 4 and 6, respectively) versus in the absence of protein was seen, the pools were cloned using the TOPO TA cloning kit (Invitrogen Cat. #45-0641, Carlsbad, Calif.) according to the manufacturer's instructions. Round 9 and 12 pool templates were cloned and sequenced (185 total sequences), producing 78 unique clones within 3 sequence families. All unique clones were transcribed, desalted, 5-^32P end-labeled, and assayed in a 3-point dot blot screen (no protein target control, 100 nM human vWF A1 domain (SEQ ID NO 5), or 100 nM rabbit vWF A1 domain (SEQ ID NO 6). The data are presented in the third and fourth columns of Table 9 below as the ratio of the fraction of the aptamer bound to the nitrocellulose in the presence of the target protein to the fraction of aptamer bound in the absence of the target protein. Of the three sequence families, members of Family #1 and #2 and two individual, non-family aptamers, bound to both human vWF domain A1 (SEQ ID NO 5) and rabbit vWF domain A1 (SEQ ID NO 6).
(§3) All unique clones were assayed in a 3-point dot blot screen (no protein target control, 100 nM human vWF A1 domain (SEQ ID NO 5), or 100 nM rabbit vWF A1 domain (SEQ ID NO 6). The data are presented in the third and fourth columns of Table 14 below as the ratio of the fraction of the aptamer bound to the nitrocellulose in the presence of the target protein to the fraction of aptamer bound in the absence of the target protein.

[2] = system: rabbit vWF A1 domain (SEQ ID NO 6); test: 3-point dot blot screen, rabbit vWF A1 domain; assay type: binding; settings: 100 nM rabbit vWF A1 domain, ratio of fraction bound with target to without
Excerpt: as §1, §2, §3
When a significant positive ratio of binding of DNA in the presence of human or rabbit vWF A1 domain versus in the absence of protein was seen, the pools were cloned using the TOPO TA cloning kit (Invitrogen Cat. #45-0641, Carlsbad, Calif.) according to the manufacturer's instructions. Round 7 and 11 pool templates were cloned and sequenced (218 total sequences), producing 146 unique clones within 12 sequence families of which sequences from six families show vWF target binding activity. All unique clones were assayed twice in a 3-point dot blot screen (no protein target control, 20 nM full length human vWF (Calbiochem Cat. #681300, La Jolla, Calif.), or 20 nM rabbit vWF A1 domain. The data is presented in the third and fourth columns of Table 17 below as the ratio of the fraction of the aptamer bound to the nitrocellulose in the presence of the target protein to the fraction of aptamer bound in the absence of the target protein.

[3] = rRdY aptamers, ratio of fraction bound with target to without
[4] = rRfY aptamers, ratio of fraction bound with target to fraction bound without target
[5] = DNA SELEX 1 aptamers, ratio of fraction bound with target to without

Chain of human vWF A1 domain (SEQ ID NO 5) (P04275 with tags, fused parts or gaps T1381A): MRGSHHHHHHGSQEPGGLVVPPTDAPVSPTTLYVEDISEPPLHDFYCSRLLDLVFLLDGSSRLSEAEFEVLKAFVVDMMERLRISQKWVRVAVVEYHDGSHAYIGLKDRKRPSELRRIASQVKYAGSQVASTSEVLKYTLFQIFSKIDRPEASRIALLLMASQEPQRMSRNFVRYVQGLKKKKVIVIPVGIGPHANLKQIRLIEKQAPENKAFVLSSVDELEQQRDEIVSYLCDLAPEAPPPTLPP
Chain of rabbit vWF A1 domain (SEQ ID NO 6) (as listed by the source): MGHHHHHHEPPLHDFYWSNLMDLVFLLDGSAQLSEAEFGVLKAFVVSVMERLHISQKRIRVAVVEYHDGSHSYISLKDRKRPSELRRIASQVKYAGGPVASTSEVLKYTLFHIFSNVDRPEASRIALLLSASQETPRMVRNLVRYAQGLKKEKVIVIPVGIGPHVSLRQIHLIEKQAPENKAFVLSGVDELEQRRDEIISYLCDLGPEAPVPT

Molecule	Screen- Human/No Protein [1, 4]	Screen- Rabbit/No Protein ([2]; rRfY aptamers)	Screen- Human/No Protein [1, 5]	Screen- Rabbit/No Protein ([2]; DNA SELEX 1 aptamers)	further results
B1	–	–	–	–	Screen- Human/No Protein [1, 3]: 1.24; Screen- Rabbit/No Protein ([2]; rRdY aptamers): 1.37
B2	1.55	1.52	–	–	–
B3	1.75	1.40	–	–	–
B4	1.79	1.86	–	–	–
B5	2.23	2.46	–	–	–
B6	1.82	1.51	–	–	–
B7	1.59	1.52	–	–	–
B8	1.69	1.64	–	–	–
B9	–	–	–	–	Screen- Human/No Protein [1, 3]: 1.16; Screen- Rabbit/No Protein ([2]; rRdY aptamers): 1.16
B10	1.76	1.52	–	–	–
B11	–	–	–	–	Screen- Human/No Protein [1, 3]: 1.30; Screen- Rabbit/No Protein ([2]; rRdY aptamers): 1.73
B12	–	–	1.73	1.28	–
B13	–	–	4.01	3.01	–
B14	–	–	1.26	1.06	–
B15	–	–	2.54	2.06	–
B16	–	–	0.97	0.96	–
B17	–	–	4.13	3.13	–
B18	–	–	2.86	1.61	–
B19	–	–	3.34	2.04	–
B20	–	–	–	–	Screen- Human/No Protein [1, 3]: 1.45; Screen- Rabbit/No Protein ([2]; rRdY aptamers): 1.29
